# Measured values from the DeepSol protein solubility set.
# Test: soluble on expression in E. coli; label from the status in PepcDB or PDB records
row,Sequence,soluble on expression in E. coli
1,MVSGGTFNAGVEKIRPGIYTNFKAAAAERTKAGERGTVALPLAASWGAAKEFVEINKEEDVEKKLGLSLAHQSFLLLRETLKLAKTVLVYRLNDGIKATATLATDVVVTAKYGGIVGNSITIKVDENVVDSSKKDVTTYLNEVAVDKQVVGTASELIDSNYVSFKTTSTSELQQSSGTTLVGGTDQPVTNLDYTQFLVSAEGEYFDTIAFPVSSSDVALKTSFVSFVKRMRDEQGVKIKGVVANMPADYEGIINVRNGVTLRDGTILEPHQVVAWVAGADASASMLKSNTFVKYDGAIDATPRLANDEAEEALQNGEFVLTFDARDKAVYVEQDLNSLTTFSKEKSSKFRKNKISRILDGINNDTRRNILDAIKERKDANTDIPADENGVQFILSMQTAYLNELQDSGAITNFDSTADITVSLNNNVDGFIVNQSIEPVDSGEKFYFTTEVKLEHHHHHH,soluble
2,MSRQEVGYPFHLGRTLKLPQDPPGMAAIYLQSCSGGLFAGETLHLQLHAGPHTQVHVSTGAATVAHSMLEQPARQTVTLIAETGALLEYLPMATILFPQARLHSVVNVTLHPNARVMLCDAFCLHVPPGSAGLPGFYRADLHIRCPAGTLLAGDRLALTGADLQRRLPGVSAELQALATFMLVGQDLPVDELKRALRDALRVVPESYLGVSALPNDCGVSVRIMTADAVALRSALHLAWACARQQLTGIAPRVRRKLEHHHHHH,not soluble
3,MGSDKIHHHHHHMPRDLPPLNALRAFTAAAKRLSFTQAAEDLGVTQAAVSHQIRGLEDWLGVALFRRRNKQVVMTEAGQVYALAIGQALDEIAEATAALVRNDPRAGMLTISTMPSFAIKWLVQRLGGFINANPDIEVRLHTTRELVNFATEGIDVAIRMTREVGDDLHADLLLEEELFPVCSPALMRGIRPLRQPSDLSQHLLLQDVGISWVSWLDPAGALDVRPARGPGYLDSALAIQACIESQGVMLGRTVMVEDDLKAGRLVEPFTLRVPSPMKYWLVCPPGHLARPGVRAFREWILAEASKWTKARSSAHGVED,not soluble
4,MGSDKIHHHHHHMNTTNQTAPQGFRLNALGHAVPESQIKEIDKLRDELVLQIVTAAKEMQGHMATYKATSMRAVADFIDLSASEFGVKFGGTKGNVSLVSFDGKYKVQRSIGEHRVFDERIQAAKSKIDDCIKRWSVGSNDHIKALVELSFKVNKQGYIDINQVLSLRQLDIDDTDWRSAMDAIADSIQVMGSTPYLRVYERQDDGTYKQISLDIAKL,not soluble
5,MNASSAPQQQQQQQQPQQGQAPQQQQQGPPQHQYQQQRPFHGRVQNHMRGSGPFGNSNGYGRYTAPRGDQQHHDSTPLSSVSSRRVPLPPTSQHRASSNFNTTPSSTNLYIRGLMPNTNDDLLREMCSKYGNIASTKAIMDKATNNCKGYGFVDFESPQAAAAAVDGLNTEGVQAQMAKLQQQEQDPTNLYIANLPLDFTEQMLETELNKFGMVISTRILRTPDNQSRGVGFARMDSKEKCEVIISALNGGRFDTMSKEGPALLIKQADTGRKSKVGSTSRHPSFQQFSSLGGPTAFLNGQHSMNNPEMLQRMQYPQVYQSYYGYHPAAVYQQHYDVNSLASQMGGMHVGGGNPQANGGGDMYGAHMYGQNAGGQGGQGVGQGGQGGNQQFYNPNNGRNKKYFQPMNPQ,not soluble
6,GPGSMPAINREELDRRVEQIYDQVVAWRRYIHENPDLSFEEQPTAAYIKGELQKMDAEGRWLHISQPESNCVVADLKGGGGDGPIIALRADIDALPVEELTDVPFASKKQGVMHACGHDTHAAMLLGATKLLLEDAGRIKGTVRLLFQPAEEVPPGGAQMMIEKGCMEGVAMVFAEHIIPMKEGPTGTVLVKRGPFLSSSDTLHVEIIGRGGHASMPESSIDPIAIACLAVTALQQVVSRRMPPSKCPILTITTIASSSDSYNVIPDRVTLKGTLRTQDREVRENAKKAVAEVLHGICGSYGAMCSLNWLPGYDVTVNTDSAYDVGMRVFAQVLPSKDQVVVLSACMSPSEDFSEFAKVAPANYVGIGCYNPGKGCTAVNHNAKFCVDEEAMKVGVKVHYGTIHELLMQ,not soluble
7,MIIDEKRVQEIKNGETSLGIEFGSTRIKAVLIANDFSILASGSFEWETSLENGVWTYSIDEIWKGLQYSYQKLFAEVKEKYGVVLSKIGSIGFSAMMHGYMAFDNKGELLVPFRTWRNTMTEEAAKKLTDLFKFNIPERWSIAHLYQAILRNEPHVEKIDFLTTLAGYIHWQLTGEKVLGIGDASGMFPIDTQTHNYDKNMLETFKNLPEVKKHSLDLEKLLPKVLLAGENAGVLTLEGAKKLDVSGNLQPGIPLCPPEGDAGTGMVATNSVAPRTGNVSAGTSIFAMVVLEKPLNRVHPEIDIVTTPSGDLVAMVHANNGCSDLEAWVNIFQQFTEAINVDMRKDLLYMALYTQAFQGDPDCGGVLAYNYFAGENITGVSEGRPMVVRKAKSNFNLPNFMRAHLFTSLGALKIGMDILLKDEAVKLDKLLGHGGLFKTPIVGQAAVAGAVNAPVSVMETAGEGGAWGIALLASYLRSKENDSTLPEFLSKNVFAGYVAEEVQPDPKDVKGFEEFIERYKKGIAIEQAAVEHLILEHHHHHH,not soluble
8,MLITISVARSENYYCVQVASSEKLEDLIPLFEKFKNMDNVRIEKIGGFYTLRIGFYLNKSDVLKILPEIKEKYRDAFVRVCEYDLSRVVFPKPEKVITLEQQEIEESKTTKENFLMLLEKNIEELKKLTEIIARGNTTKVKPFEKLESTVVEMYKQKEKSYKRAFPLYINGEFRYRGKALTGENLLGDKWYSYLGLKLSFFRRGFADFKYEKERAKFAKLFSEFDIQKEYTYLLAFQSQEEVFLKGLKYELGVVESEKNKTLSLLKDWVKFTESYDKSLGFPYRELIKKEELEGIESVSNGFFLKPMKINVEEFMKYYEKRKKDVEEYLKKFEIKTTDKWFYLRHTDLDVFARYYFAGKDGNTRDFWALGLRFELPIPYIITDLGKVDKLEILSFKERARLSYATTYSFLFDYISRINRNYSNIVNHLEQINVNFLEIEREIYFWKNGLREANYTLILRNLLDTYHRLEQLIYLKYINYVYIQKLIYFMDIKEEEIIRRILDG,not soluble
9,MYIRINNGVTECNIRLVGTAHVSDDSITEVKNAIVETDPELVAIELDKDRFVAMFQNKKNDVDLKSVIKQGKVGIYIVHSILANFQKNIGEQFGIKPGSEMKKATDLAIQYQKPISLIDRPINITLSRTVNKMTFKEKFDFVIGLLTEQNVELDEKAINEMVSNADDLILLLKDISPSIYETLVNERDKYMAKNLFEASKGKENIVAVVGAGHVPGIKNYLKKMESGEDIDLKSLM,not soluble
10,MKLDPQTLAHITSATLGNYNRVADDFREGTRDHDVSQNIDALLRHIEGSAPWQILDFGCGPGRDLKTFTAMGHVAVGLDGSERFAEMARAETGCEVFQQNFLELDLPQGRFDGIFANAVLFHIPRQELPRVLRELYATLKPGGVLFSSNPRGQNQEGWQGERYGAYHDLETWRQLLTDAGFAELEHYYRPAGLPRDQQPWLASVWRRLEHHHHHH,not soluble
11,MPDNEVDLLFAQLSPEDLIEWSDYLPESFTDRALAQMGERQRQRFELYDQYSENEIGRYTDHQMLVLSDKATVAQAQRFFRRIELDCNDNLFIVDEADKYLGTVRRYDIFKHEPHEPLISLLSEDSRALTANTTLLDAAEAIEHSREIELPVIDDAGELIGRVTLRAATALVREHYEAQLMATAGMDESDDLFAPILKGAQRRAV,soluble
12,MGSDKIHHHHHHMIRIANGQGFWGDWLEAPVRLVEQGPLDYLALDYLAEVTMSILQKQKQADPKLGYARDFPPLIARIAEQIRERGVTVIANAGGVNPVACAREVVRLAPGLKVAVVLGDDVYPRLDSFLAKGYEMRDMDTGEPIAAIRDRIQSANAYIGAFPLAEALGTGANVVIAGRSTDTALALAPMVHRFGWGPDAFDRLAAGTIAGHIIECGAQCTGGNCQVDWESIPDMANIGYPIVEAEPDGSFVVTKHPAAGGRVSLDSVKEQLLYELGDPQRYITPDCIADFTSVRLAADGPDRVRVTDIRGGPRPPSLKLSISYANGWKAVGTLVYSWPQALAKARAADRIVRERLRNLGLSFEEIHTEFFGVSACHGALAPPNPDPPEVQLRIGVRGQDKKAVDRFTRELIPLVLNGPPGATGFGEGRPPVREIVAYWSTLVPREEIDTRVEVVE,not soluble
